# Data reported in paper PMC7954794, “Protein context shapes the specificity of SH3 domain-mediated interactions in vivo” (Nature Communications, 2021).
# B1: YGL099W (protein, UniProt P53145 1-640, looked up)
# Large subunit GTPase 1: MPPKEAPKKWKAPKGPKPTHRKNKNKLELGRAIKYARQKENAIEYLPDGEMRFTTDKHEANWVKLRSVTQESALDEFLSTAALADKDFTADRHSNVKIIRMDSGNDSATSQGFSMTNEQRGNLNAKQRALAKDLIVPRRPEWNEGMSKFQLDRQEKEAFLEWRRKLAHLQESNEDLLLTPFERNIEVWKQLWRVVERSDLVVQIVDARNPLLFRSVDLERYVKESDDRKANLLLVNKADLLTKKQRIAWAKYFISKNISFTFYSALRANQLLEKQKEMGEDYREQDFEEADKEGFDADEKVMEKVKILSIDQLEELFLSKAPNEPLLPPLPGQPPLINIGLVGYPNVGKSSTINSLVGAKKVSVSSTPGKTKHFQTIKLSDSVMLCDCPGLVFPNFAYNKGELVCNGVLPIDQLRDYIGPAGLVAERIPKYYIEAIYGIHIQTKSRDEGGNGDIPTAQELLVAYARARGYMTQGYGSADEPRASRYILKDYVNGKLLYVNPPPHLEDDTPYTREECEEFNKDLYVFDRLPDTRKEQVQNAAKAKGIDIVDLARDLNQLTFSAHTGGDTQKEAKSVTHGGKQAALYNAAEDLDRDFFKMNNVEGRLSTPFHKVQNSSAGKRHNKKNKSKNAKSKVFSIENN
# B2: YJL128C (protein, UniProt P08018 1-668, looked up)
# MAP kinase kinase PBS2: MEDKFANLSLHEKTGKSSIQLNEQTGSDNGSAVKRTSSTSSHYNNINADLHARVKAFQEQRALKRSASVGSNQSEQDKGSSQSPKHIQQIVNKPLPPLPVAGSSKVSQRMSSQVVQASSKSTLKNVLDNQETQNITDVNINIDTTKITATTIGVNTGLPATDITPSVSNTASATHKAQLLNPNRRAPRRPLSTQHPTRPNVAPHKAPAIINTPKQSLSARRGLKLPPGGMSLKMPTKTAQQPQQFAPSPSNKKHIETLSNSKVVEGKRSNPGSLINGVQSTSTSSSTEGPHDTVGTTPRTGNSNNSSNSGSSGGGGLFANFSKYVDIKSGSLNFAGKLSLSSKGIDFSNGSSSRITLDELEFLDELGHGNYGNVSKVLHKPTNVIMATKEVRLELDEAKFRQILMELEVLHKCNSPYIVDFYGAFFIEGAVYMCMEYMDGGSLDKIYDESSEIGGIDEPQLAFIANAVIHGLKELKEQHNIIHRDVKPTNILCSANQGTVKLCDFGVSGNLVASLAKTNIGCQSYMAPERIKSLNPDRATYTVQSDIWSLGLSILEMALGRYPYPPETYDNIFSQLSAIVDGPPPRLPSDKFSSDAQDFVSLCLQKIPERRPTYAALTEHPWLVKYRNQDVHMSEYITERLERRNKILRERGENGLSKNVPALHMGGL
# B3: YNL098C (protein, UniProt P01120 2-319, looked up)
# Ras-like protein 2: PLNKSNIREYKLVVVGGGGVGKSALTIQLTQSHFVDEYDPTIEDSYRKQVVIDDEVSILDILDTAGQEEYSAMREQYMRNGEGFLLVYSITSKSSLDELMTYYQQILRVKDTDYVPIVVVGNKSDLENEKQVSYQDGLNMAKQMNAPFLETSAKQAINVEEAFYTLARLVRDEGGKYNKTLTENDNSKQTSQDTKGSGANSVPRNSGGHRKMSNAANGKNVNSSTTVVNARNASIESKTGLAGNQATNGKTQTDRTNIDNSTGQAGQANAQSANTVNNRVNNNSKAGQVSNAKQARKQQAAPGGNTSEASKSGSGGCC
# B4: YNL094W (protein, UniProt P53933 1-587, looked up)
# Phosphatidate phosphatase APP1: MNSQGYDESSSSTAATSGPTSGDPRMGKKQRFMNLIRTTKDVYIPNLTSSISQKTMDGIRSTTNSFEGYNDLPMELPHNTTITYFPTYTTTNLVDPDGLSAPRKDFETTVRCAVSYPGNPTSRRNRWLLSLCKQYLRTGTAEADVAPVVPPHLEEDSGDLNDSQSSIESSLSSKSENRYSHMGIQEEDVLNERIQGFLSKKVPNTPVVVDLLPKDKLRGDTASFFGTTDSYGNLLIKAETDFLPSKINITLDTPIEGHADPISETFPANYVSPYGIGLISDIDDTIKHTGVTGDRRSMFRNVFIHDVQSWVIDGVPLWYKTLHDVADVDFFYVSNSPIQTFTLLKQYICANFPPGPIFLKQYSGNFFSTIMTSSANRKIQPIANILKDFPKKKFILVGDSGEHDLEAYTTTALQFPNQILAIYIRCCSNSMSDVPSHDEEVMNEVNNIIELQQRPMQMTKSTVRTRRRPPPPPIPSTQKPSLTEEQTESIRMSRRNKDENNAKRVAPPPLPNRQLPNLDANTYYVPSSQNDYGMYGAFMDKKADEWKRRVMDSIQKLSNQDTTLMFFSDPALSLEDSIRRIREKYSN
# B5: YJL155C (protein, UniProt P32604 1-452, looked up)
# Fructose-2,6-bisphosphatase: MGYSTISNDNDIKVCVIMVGLPARGKSFISQKIIRYLSWLSIKAKCFNVGNYRRDVSGNVPMDAEFFNFENTDNFKLRELAAQNAIKDIVNFFTKEDGSVAVFDATNSTRKRRKWLKDICEKNNIQPMFLESWSNDHELIINNAKDIGSTSPDYENSEPHVAEADFLERIRQYERFYEPLDPQKDKDMTFIKLVNIIEEVVINKIRTYLESRIVFYVMNIRPKPKYIWLSRHGESIYNVEKKIGGDSSLSERGFQYAKKLEQLVKESAGEINLTVWTSTLKRTQQTANYLPYKKLQWKALDELDAGVCDGMTYEEIEKEYPEDFKARDNDKYEYRYRGGESYRDVVIRLEPVIMELERQENVLIITHQAVLRCIYAYFMNVPQEESPWMSIPLHTLIKLEPRAYGTKVTKIKANIPAVSTYKEKGTSQVGELSQSSTKLHQLLNDSPLEDKF
# B6: YNL020C (protein, UniProt P53974 1-638, looked up)
# Actin-regulating kinase 1: MNQPQIGTYNVGTQLTVGSHQVEIIKYLTSGGFAQVYSALINPPDPHSNSSVACLKRVIVPDKPSLNTLRAEVDAMRLLKNNRYVVSYIDSHAAKAMLHNGSYEVFVLMEYCERGGLIDFMNTRLQNRLHEFEILQIMSQVTQGVAAMHALQPPLIHRDIKIENVLISANNEYKLCDFGSVCGIIRPPRNSQELSYVQQDILKNTTAQYRSPEMIDTFRGLPIDEKSDIWALGIFLYKLCYYTTPFEKGGDLAILSGKFEFPLYPNYSEQLKGLIRDILVQDPRHRPNVYQLLKRISIMQNVPCPINDIQVVQAPSSHLNLTELHQLSATQNILSLNSPTTMENTMPNATFQISMADNTTTAQMHPNRKPSQIAYDASFSNSAKGSQPLFDKSQNMYHALDPPLVEPLASSVSNNDNELKANSATKLKQAIVSEAHTFRQNNSIDFPLQNIIPQYEDSSSSSDESYSGDVDELKKTRSLGSYSTRGNIKKNQSVKESLTSSSLPGTSFTPTSTKVNLKHENSPFKSTFVNTIDNSKDDLNKPSYEDLDVSKQNLKNSIQQRMIDKLNSSEESFNARKMSKVKLHEKGEIDKPTMLKSSGPISKDKKTKPTPPPKPSHLKPKPPPKPLLLAGRKLSLDK
# B7: YNL255C (protein, UniProt P53849 1-153, looked up)
# Zinc finger protein GIS2: MSQKACYVCGKIGHLAEDCDSERLCYNCNKPGHVQTDCTMPRTVEFKQCYNCGETGHVRSECTVQRCFNCNQTGHISRECPEPKKTSRFSKVSCYKCGGPNHMAKDCMKEDGISGLKCYTCGQAGHMSRDCQNDRLCYNCNETGHISKDCPKA
# B8: YLR330W (protein, UniProt Q12114 1-671, looked up)
# Chitin biosynthesis protein …: MSSVDVLLTVGKLDASLALLTTQDHHVIEFPTVLLPENVKAGSIIKMQVSQNLEEEKKQRNHFKSIQAKILEKYGTHKPESPVLKIVNVTQTSCVLAWDPLKLGSAKLKSLILYRKGIRSMVIPNPFKVTTTKISGLSVDTPYEFQLKLITTSGTLWSEKVILRTHKMTDMSGITVCLGPLDPLKEISDLQISQCLSHIGARPLQRHVAIDTTHFVCNDLDNEESNEELIRAKHNNIPIVRPEWVRACEVEKRIVGVRGFYLDADQSILKNYTFPPVNEEELSYSKENEPVAEVADENKMPEDTTDVEQVASPNDNESNPSEAKEQGEKSGHETAPVSPVEDPLHASTALENETTIETVNPSVRSLKSEPVGTPNIEENKADSSAEAVVEEPNEAVAESSPNEEATGQKSEDTDTHSNEQADNGFVQTEEVAENNITTESAGENNEPADDAAMEFGRPEAEIETPEVNESIEDANEPAEDSNEPVEDSNKPVKDSNKPVEDSNKPVEDSNKPVEDSNKPVEDANEPVEDTSEPVEDAGEPVQETNEFTTDIASPRHQEEDIELEAEPKDATESVAVEPSNEDVKPEEKGSEAEDDINNVSKEAASGESTTHQKTEASASLESSAVTEEQETTEAEVNTDDVLSTKEAKKNTGNSNSNKKKNKKNKKKGKKK
# B9: YJR083C (protein, UniProt P47129 1-309, looked up)
# Assembly-complementing factor …: MSEDQRVISQPIELHKLSIVDKHSQGQQQQPHQKQHEVQPESKSPRVTTPLKPKRLAIPISSPQRSTTNQSPVSDHASPISTDQDLIYKLAAKHREINELSFKLEVAQKELKQLELQFKDTLPRNGQQKLGNQNPSEYLSTFTKRIQQTFVDVNNSPNMLKGKKSINDFFSKPNNNVNSNINNTLPNRKPNPPPNRSQRMQNIAPSRSSESTPTSGPPLLPPRNTMKNANTTATAGENTPFLQRILNKFNQMNMEEDEFDDLLEKRKSKKDHYYIKENLGYEYDEVRSEDEDDEEFEPMGDIPVHLFKR
# B10: YMR216C (protein, UniProt Q03656 1-742, looked up)
# Serine/threonine-protein …: MGSSINYPGFVTKSAHLADTSTDASISCEEATSSQEAKKNFFQRDYNMMKKAPAPTKSKLSLALQTSKSSSSANGTVQEDTSSKTEDFSTKSIKKKPDSGVESHVSIQSDSGPQSDSDLDSDSSISSCDERNEESLKDYRPGGYHPAFKGEPYKDARYILVRKLGWGHFSTVWLAKDMVNNTHVAMKIVRGDKVYTEAAEDEIKLLQRVNDADNTKEDSMGANHILKLLDHFNHKGPNGVHVVMVFEVLGENLLALIKKYEHRGIPLIYVKQISKQLLLGLDYMHRRCGIIHTDIKPENVLMEIGDVEGIVQMVEALDKQKREAKRLQRHVSRSSDITANDSSDEKWAECQTSMPCGSSSNSKSRSIEKDLSKRCFRRPRRHTIITGSQPLPSPISSSNFFEMRAHFCGSSHNSFSSVSGNRNIPSSINNNSINNGIGIKNSNNSFLNSVPHSVTRMFINEDSNDNNNNDNSKNKNNNNNNSNNNNNEDIMNTPLHEEQLADSLSTFDISNISQSSDTNGPYISNTMDSNSNVSTDINSPENLIQIKIADLGNACWYDEHYTNSIQTREYRSPEVLLGAPWGCGADIWSTACLIFELITGDFLFEPDEGHSYTKDDDHIAQIIELLGELPSYLLRNGKYTRTFFNSRGLLRNISKLKFWPLEDVLTEKYKFSKDEAKEISDFLSPMLQLDPRKRADAGGLVNHPWLKDTLGMEEIRVPDRELYGSGSDIPGWFEEVRDHKRH
# Tested on: ABP1
# Assay: DHFR-PCA on solid medium, bait ABP1 (Fig. 1B)
# Format: cell-based, Saccharomyces cerevisiae
# Settings: bait ABP1, label = prey; 2-4 replicates
# Description: Supplement 41467_2021_21873_MOESM8_ESM.xlsx, sheet "Fig1B" | column: medsize; medrep; Ratio; Score
row,Molecule,"medrep (log2 median colony size normalized to plate background, PCA score)"
1,B1,1.414
2,B2,2.693
3,B3,3.322
4,B4,1.857
5,B5,1.596
6,B6,4.233
7,B7,2.801
8,B8,3.386
9,B9,1.804
10,B10,1.64

# Same assay, conditions: bait ABP1, label = prey; only significant differences showed; PPIs completely lost have a ratio of 0.1 and the gained PPIs 2.5
row,Molecule,Ratio (SH3-deleted/WT medrep)
1,B1,0.1
2,B4,0.1
3,B9,0.1
